Some targets named below: RBD Omikron (SARS-CoV-2, Omicron variant); RBD-L452Q F490S (SARS-CoV-2, UniProt P0DTC2); RBD-E484K (SARS-CoV-2, UniProt P0DTC2); RBD-E406W (SARS-CoV-2, UniProt P0DTC2).

B1: Antibody 1F12 (antibody, V domains shown)
VH: QSLEESGGDLVKPGASLTLTCTASGFSFSNNYVMCWVRQAPGKGLEWIGCINTGSGSTYYATWAKGRFTISKISSTTVTLQMTSLTAADTATYFCARSTTYYNYIGGNWIYVMDGFNLWGPGTLVPVSS
VL: AQVLTQTPSSVSEPVGGTVTINCQASENIYSSLAWYQQKPGQPPKLLIYDASDLASGVPSRFSGSGSGTEYTLTISGVECDDAATYYCQQGYTVDNIDNTFGGGTEVVVK
In the case of B1, the dissociation constant Kd with RBD Omikron came to 0.28 nM; with RBD-L452Q F490S, 0.33 nM; with RBD-E484K, 0.31 nM; in the assay with RBD-E406W, 0.75 nM. For the same molecule, the koff amounted to 0.0012 s⁻¹ with RBD Omikron, 0.0019 s⁻¹ in the assay with RBD-L452Q F490S, 0.00081 s⁻¹ with RBD-E484K and 0.0016 s⁻¹ in the assay with RBD-E406W. For the same molecule, the kon came to 2e+06 M⁻¹ s⁻¹ with RBD Omikron, 5.8e+06 M⁻¹ s⁻¹ with RBD-L452Q F490S, 2.6e+06 M⁻¹ s⁻¹ with RBD-E484K and 2.1e+06 M⁻¹ s⁻¹ in the assay with RBD-E406W.

The values are drawn from patent US20250042976A1 (ROCHE DIAGNOSTICS OPERATIONS, published 2025).
